Assay results reported in patent publication US20030027180, “Nucleic acid shuffling” (published 2003).

Columns and labels:
streptavidin [1] = target: T1, streptavidin (UniProt P22629 P22629:25-183); assay: filter; affinity comparable to error-prone PCR evolved sequences; no own Kd printed; conditions: tags: Sigma; chain copies: 4; stem-loop predicted by Mfold
Procedure: (§1) Binding affinity assays: Affinities for streptavidin were measured using a radioactive filter binding assay. Pools or individual clones were amplified by PCR. One pmol was radiolabeled with 15 units T4 PNK and 10 μCi γ-³²P ATP (NEN) in T4 PNK buffer at 37° C., 1 h. Labeled DNA was extracted twice with phenol-chloroform and purified twice by gel filtration to remove ATP. The DNA was then denatured in water at 95° C. for 5 min together with 2 μg human genomic DNA (to block nonspecific DNA binding) per 5 fmol labeled DNA, and chilled in ice water for 5 mins. 5 fmol of labeled DNA plus 2 μg unlabeled human genomic DNA was added to varying amounts of streptavidin (0 to 1024 nM) in 50 μL of 100 mM NaCl, 50 mM Tris-Cl pH 8.0, 5 mM MgCl₂ (“assay buffer”), giving a final concentration of labeled DNA of 0.1 nM. The DNA and streptavidin were incubated at room temperature for 30 minutes. A multiscreen-HA 96 well nitrocellulose filter plate (Millipore), which retains protein-DNA complexes much better than free DNA, was pre-washed with 125 μL assay buffer then loaded with each assay sample. The samples were rapidly filtered on a vacuum manifold and the membranes washed twice with 250 uL of assay buffer. The membrane for each well was punched out from the plate using a stylus and the bound radioactive label quantitated by phosphorimager together with 1 fmol of unreacted probe.

streptavidin [2] = target: T1, streptavidin; assay: filter; 100 mM NaCl, 50 mM Tris pH 8.0, 5 mM MgCl2, room temperature, human genomic DNA competitor; conditions: tags: Sigma; chain copies: 4; label: 5'-32P
Procedure: as §1

streptavidin [3] = target: T1, streptavidin; assay: filter; no streptavidin affinity; conditions: tags: Sigma; chain copies: 4
Procedure: as §1

T1 sequence (P22629 25-183, one chain of several): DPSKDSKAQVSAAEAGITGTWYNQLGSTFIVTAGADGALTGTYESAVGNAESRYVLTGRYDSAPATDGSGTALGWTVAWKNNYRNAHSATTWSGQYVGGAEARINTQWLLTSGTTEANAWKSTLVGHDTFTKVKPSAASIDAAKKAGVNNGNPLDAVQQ

Does TCTGTGAGACGACGCACCGGTCGCAGGTTTTGTCTCACAG (ssDNA) [minimal 40-mer] bind (streptavidin [1])?
Result: binds

B1: 13x16 #1 (ssDNA)
DNA: GAAAACTGCTCATATGATTGATTAGCCCGCTGCTCGTCCAAATGACGGCTCAGCTCTGTATTTTTAGCGTCTGTGAGACAGAACCTGCGACCGGTGCGTCGTCTCACAGTCTACTGTATCTTCGCGTACCTTAGGTTTACCCGCTGCTCGTCCAAATGACGGCTCTCTGTGAGACAAAACCTGCGACCGGTGCGTCGTCTCACAGTAAGAGGGTTCTTGGATA
B1 was tested. Which Kd (streptavidin [2]) did it give?
The Kd was 4.7 nM.

Does CTGTGAGACAAAACCTGCGACCGGTGCGTCGTCTCACAGA (ssDNA) [complement strand of minimal 40-mer] bind (streptavidin [3])?
Result: no binding
